Experimental data as given in patent publication US20080213252A1, “METHODS OF TREATING ITCH” (priority 2007, published 2008).

B1: recombinant mucunain: M. pruriens cysteine protease expressed in E. coli, refolded and activated (protein)
chain: DNLPESVDWRNESAVLPVKDQGNCGSCWAFSTIGAVEGINKIVTGDLISLSEQELVDCDTSYNQGCNGGLMDYAYEFIINNGGIDSEEDYPYRAVDGTCDQYRKNAKVVTIDSYEDVPANDELALKKAVANQPVSVAIEGGGREFQLYVSGVFTGRCGTALDHGVVAVGYGSVKGHDYWIVRNSWGASWGEEGYVRLERNLAKSRSGKCGIAIEPSYPIKNGANPPNPGPSPPSPVKPPNVCDNSYSCSDSATCCCIFEFQKYCMVWGCCPLEAATCCDDHYSCCPHEYPICNVRAGTCLKGKNNPFGVKALRRTPAKPHWAFGGKNKVNSA
B2: mucunain: cysteine protease, itch-inducing component of spicules from M. pruriens (cowhage) (protein)
chain: B1 chain
B3: papain: crystallized papain from Sigma, control cysteine protease (protein)
chain: IPEYVDWRQKGAVTPVKNQGSCGSCWAFSAVVTIEGIIKIRTGNLNEYSEQELLDCDRRSYGCNGGYPWSALQLVAQYGIHYRNTYPYEGVQRYCRSREKGPYAAKTDGVRQVQPYNEGALLYSIANQPVSVVLEAAGKDFQLYRGGIFVGPCGNKVDHAVAAVGYGPNYILIKNSWGTGWGENGYIRIKRGTGNSYGVCGLYTSSFYPVKN

Experiments:
skin of volunteers = assay: Psychophysics: itch sensation after insertion of native or reconstituted cowhage spicules into skin; type: in vivo; conditions: human volunteers; autoclaved spicules soaked in the substance and dried
Description: Reconstitution of spicules—Native spicules were inactivated by autoclaving for 1 hour and reconstituted with native and recombinant mucunains in the presence or absence of cysteine protease inhibitor, E64. Typically, 50 mg of inactivated spicules were mixed with 0.4 ml of 28 μM mucunain in a 2 ml microfuge tube, vortexed, and dried in a Speed-vac for 2 hours at room temperature. These spicules were then considered as ‘reconstituted’ with the protease alone. Spicules prepared in a similar manner but with E64 added at twice the concentration of mucunain, are considered reconstituted with the protease and the inhibitor.
Psychophysics—These protocols were approved by the Yale University Human Investigation Committee. A row of 10 cowhage spicules were lightly pasted to the flattened end of a Weck-Cel surgical strip, spaced at 1 mm, and applied parallel to the surface of the skin at the mid-volar forearm. […] Every 30 sec, subjects rated the magnitude of each of three qualities of sensation: Itch, pricking/stinging, and burning using the Generalized Labeled Magnitude Scale (Bartoshuk et al. 2004) that employs appropriately placed intensity descriptors of “none”, “barely detectable”, “weak”, “moderate”, “strong”, “very strong” and, at the top of the scale, “the strongest sensation imaginable.” Voltages derived from each subject's movements of a computer mouse that controlled a cursor on a visual representation of this scale were converted to numbers between 0 and 100 and plotted for each quality at successive intervals of 30 s up to 20 min after the insertion of cowhage. […]
The sensory effects of mucunain was further analyzed. […] 50 mg of the inactivated, dried spicules were then soaked in 0.05 ml of the filtered extract containing 0.07 mg of cysteine protease (as determined by non-interfering protein assay) with or without 3.5 micrograms of E-64. […]

casein = conditions: 12.5% native casein-zymogram gel, 0.1 μg of each mucunain
Description: Zymogram—The zymogram of native and recombinant mucunain was carried out using a 12.5% native casein-zymogram gel as recommended by the supplier (Biorad). The zymogram gel was run with 0.1 μg of each of the mucunains, renatured and developed for protease activity overnight.

PAR4 = assay: PAR activation by cytoplasmic calcium release, ratiometric Fura-2 imaging, PAR4 transfected HeLa cells; type: cell-based, human; conditions: Fura-2 340:380 ratiometric imaging
Description: PAR activation observed by cytoplasmic calcium release—The four human PAR cDNAs were obtained from commercial sources and cloned into the pcDNA3.1 (−) vector (Invitrogen). HeLa cells were transfected with 10 μg of vector cDNA using Lipofectamine 2000 (Invitrogen) and cultured for two days in 96-well glass bottom plates at 30,000 cells/well. Cells were loaded with Fura-2 as follows. The medium was aspirated and replaced with 100 μl of complete DMEM containing 2 μM Fura-2 (Invitrogen) and kept at room temperature in the dark for 1 hr. The medium was again aspirated and each well received 90 μl of HEPES buffered saline (20 mM HEPES, 115 mM NaCl, 5.4 mM KCl, 2 mM CaCl2, 0.8 mM MgCl2, 13.8 mM glucose, pH 7.4). Plates were observed using a Zeiss Axiovert 200M microscope equipped with a filter wheel for monitoring excitation at 340 and 380 nm. Axiovision software, version 4.6 was used to analyze ratiometric calcium imaging of the cells. Ten μl of protease was applied approximately 20 seconds after the start of excitation. Images were taken every 5 seconds, beginning at time zero, for 3 minutes. The software was used to analyze the 37 images taken during each 3-minute period.

[1] = native mucunain 0.9 μM, recombinant mucunain 2.7 μM; room temperature 1 hr; absorbance at 405 nm
Description: Chromogenic substrate assay—Native and recombinant mucunain protease activity were measured in a buffer containing 50 mM sodium acetate (pH 5.5), 2.5 mM EDTA, 2.5 mM DTT, and 250 μg/ml Z-Phe-Arg-pNA as the chromogenic substrate. After adding protease, the reaction was incubated at room temperature for 1 hr. Generation of the yellow product, p-nitroaniline, was assayed by measuring the absorbance at 405 nm. Papain served as a control cysteine protease. E64, an irreversible inhibitor of cysteine proteases, was used at a concentration of 10 M. Experiments were performed in triplicate and the error bars represent standard deviation.

Molecule | itch evoked by substance loaded into inactivated spicules (skin of volunteers) | protease activity in zymogram (casein) | calcium influx in PAR4 transfected HeLa cells (PAR4) | cleavage of chromogenic substrate Z-FR-pNA [1]
B1 | did elicit itch | Protease activity was found | induced calcium influx | –
B2 | evoked itch and nociceptive sensations | – | – | cleaves
B3 | produced itch | – | induced calcium influx | –
